Residue numbers refer to the chain shown, from its start. Names and notes keep the numbering of the source.
T1: PUF4 RNA-binding domain (Saccharomyces cerevisiae, UniProt P25339 537-888)
T1 sequence: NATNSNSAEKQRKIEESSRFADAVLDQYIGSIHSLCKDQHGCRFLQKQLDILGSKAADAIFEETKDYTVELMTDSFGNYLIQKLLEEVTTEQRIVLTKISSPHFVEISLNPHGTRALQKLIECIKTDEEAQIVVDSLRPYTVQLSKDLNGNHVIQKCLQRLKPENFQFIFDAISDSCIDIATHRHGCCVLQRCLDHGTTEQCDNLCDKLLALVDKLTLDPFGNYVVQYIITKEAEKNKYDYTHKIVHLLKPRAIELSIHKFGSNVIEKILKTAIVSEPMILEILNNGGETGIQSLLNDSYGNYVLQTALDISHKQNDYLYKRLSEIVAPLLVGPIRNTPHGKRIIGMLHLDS

B1: Ia_S2_P4E.1_K4.1_C4.1_H4.1_A4.1_[T7A]_F4.1_T4.1 (ssRNA)
RNA: UUUGAUUAAUAUGAUAUCGUUCUUUCUUGUAUAAUAUUCUUUCUCGAUAUCAUAUUAAUCUUU
B2: Ib_S2_P5E.1_K5.1_C5.1_H5.1_[A4C]_A5.1_F5.1_[T8C]_T5.1 (ssRNA)
RNA: UUUGAUUAAUAUGAUAUCGUUCUUUCUUGUCUUACUAUUCUUUCUCGAUAUCAUAUUAAUCUUU
B3: Ib_S2_P5E.1_K5.1_C5.1_H5.1_[A4T]_A5.1_F5.1_[T8C]_T5.1 (ssRNA)
RNA: B2 RNA with C31U
B4: Ib_S2_P5E.1_K5.1_C5.1_H5.1_[G2A]_A5.1_F5.1_[A10G]_T5.1 (ssRNA)
RNA: B2 RNA with G29A, C31A, C35U, A37G
B5: Ib_S2_P5E.1_K5.1_C5.1_H5.1_A5.1_[T5G]_F5.1_[T8C]_T5.1 (ssRNA)
RNA: B2 RNA with C31A, U32G
B6: Ib_S2_P5E.1_K5.1_C5.1_H5.1_A5.1_[T5G]_F5.1_[A10C]_T5.1 (ssRNA)
RNA: B2 RNA with C31A, U32G, C35U, A37C
B7: Ia_S2_P5E.1_K5.1_C5.1_H5.1_A5.1_F5.1_[T8C]_T5.1 (ssRNA)
RNA: B2 RNA with C31A
B8: Ia_S2_P5E.1_K5.1_C5.1_H5.1_A5.1_F5.1_[T8A]_T5.1 (ssRNA)
RNA: B2 RNA with C31A, C35A
B9: Ib_S2_P5E.1_K5.1_C5.1_H5.1_[G2A]_A5.1_F5.1_[T9C]_T5.1 (ssRNA)
RNA: B2 RNA with G29A, C31A, C35U, U36C
B10: Ib_S2_P5E.1_K5.1_C5.1_H5.1_[T3C]_A5.1_F5.1_[T9A]_T5.1 (ssRNA)
RNA: B2 RNA with U30C, C31A, C35U, U36A
B11: Ib_S2_P5E.1_K5.1_C5.1_H5.1_A5.1_[T5G]_F5.1_[T8A]_T5.1 (ssRNA)
RNA: B2 RNA with C31A, U32G, C35A
B12: Ib_S2_P5E.1_K5.1_C5.1_H5.1_[A4C]_A5.1_F5.1_[A10T]_T5.1 (ssRNA)
RNA: B2 RNA with C35U, A37U
B13: Ib_S2_P5E.1_K5.1_C5.1_H5.1_[A4T]_A5.1_F5.1_[T8A]_T5.1 (ssRNA)
RNA: B2 RNA with C31U, C35A
B14: Ia_S2_P5E.1_K5.1_C5.1_H5.1_A5.1_F5.1_[T8G]_T5.1 (ssRNA)
RNA: B2 RNA with C31A, C35G
B15: Ib_S2_P5E.1_K5.1_C5.1_H5.1_[T1A]_A5.1_F5.1_[T9C]_T5.1 (ssRNA)
RNA: B2 RNA with U28A, C31A, C35U, U36C
B16: Ib_S2_P5E.1_K5.1_C5.1_H5.1_A5.1_[T5C]_F5.1_[T9C]_T5.1 (ssRNA)
RNA: B2 RNA with C31A, U32C, C35U, U36C
B17: Ib_S2_P5E.1_K5.1_C5.1_H5.1_[T1C]_A5.1_F5.1_[A10C]_T5.1 (ssRNA)
RNA: B2 RNA with U28C, C31A, C35U, A37C
B18: Ib_S2_P5E.1_K5.1_C5.1_H5.1_[G2C]_A5.1_F5.1_[A10G]_T5.1 (ssRNA)
RNA: B2 RNA with G29C, C31A, C35U, A37G
B19: Ib_S2_P5E.1_K5.1_C5.1_H5.1_[G2A]_A5.1_F5.1_[A10T]_T5.1 (ssRNA)
RNA: B2 RNA with G29A, C31A, C35U, A37U
B20: Ib_S2_P5E.1_K5.1_C5.1_H5.1_A5.1_[T6A]_F5.1_[T9A]_T5.1 (ssRNA)
RNA: B2 RNA with C31A, U33A, C35U, U36A
B21: Ib_S2_P5E.1_K5.1_C5.1_H5.1_[T1C]_A5.1_F5.1_[A10G]_T5.1 (ssRNA)
RNA: B2 RNA with U28C, C31A, C35U, A37G
B22: Ib_S2_P5E.1_K5.1_C5.1_H5.1_A5.1_[T5C]_F5.1_[A10T]_T5.1 (ssRNA)
RNA: B2 RNA with C31A, U32C, C35U, A37U
B23: Ib_S2_P5E.1_K5.1_C5.1_H5.1_[A4G]_A5.1_F5.1_[A10C]_T5.1 (ssRNA)
RNA: B2 RNA with C31G, C35U, A37C
B24: Ib_S2_P5E.1_K5.1_C5.1_H5.1_A5.1_[T6A]_F5.1_[T8A]_T5.1 (ssRNA)
RNA: B2 RNA with C31A, U33A, C35A
B25: Ib_S2_P5E.1_K5.1_C5.1_H5.1_A5.1_[T5G]_F5.1_[T9C]_T5.1 (ssRNA)
RNA: B2 RNA with C31A, U32G, C35U, U36C
B26: Ib_S2_P5E.1_K5.1_C5.1_H5.1_A5.1_[A7T]_F5.1_[T9A]_T5.1 (ssRNA)
RNA: B2 RNA with C31A, A34U, C35U, U36A
B27: Ib_S2_P5E.1_K5.1_C5.1_H5.1_A5.1_[T6A]_F5.1_[T8C]_T5.1 (ssRNA)
RNA: B2 RNA with C31A, U33A
B28: Ic_S2_P5E.1_K5.1_C5.1_H5.1_A5.1_[T6A]_F5.1_[T9C]_T5.1 (ssRNA)
RNA: B2 RNA with C31A, U33A, C35U, U36C
B29: Ib_S2_P5E.1_K5.1_C5.1_H5.1_[T1A]_A5.1_F5.1_[A10T]_T5.1 (ssRNA)
RNA: B2 RNA with U28A, C31A, C35U, A37U
B30: Ib_S2_P5E.1_K5.1_C5.1_H5.1_[G2C]_A5.1_F5.1_[T9A]_T5.1 (ssRNA)
RNA: B2 RNA with G29C, C31A, C35U, U36A
B31: Ia_S2_P5E.1_K5.1_C5.1_H5.1_A5.1_F5.1_[A10G]_T5.1 (ssRNA)
RNA: B2 RNA with C31A, C35U, A37G
B32: Ib_S2_P5E.1_K5.1_C5.1_H5.1_A5.1_[A7G]_F5.1_[T9A]_T5.1 (ssRNA)
RNA: B2 RNA with C31A, A34G, C35U, U36A
B33: Ib_S2_P5E.1_K5.1_C5.1_H5.1_A5.1_[T6C]_F5.1_[T8C]_T5.1 (ssRNA)
RNA: B2 RNA with C31A, U33C
B34: Ib_S2_P5E.1_K5.1_C5.1_H5.1_A5.1_[T5A]_F5.1_[T8C]_T5.1 (ssRNA)
RNA: B2 RNA with C31A, U32A
B35: Ic_S2_P5E.1_K5.1_C5.1_H5.1_A5.1_[T6C]_F5.1_[T9A]_T5.1 (ssRNA)
RNA: B2 RNA with C31A, U33C, C35U, U36A
B36: Ib_S2_P5E.1_K5.1_C5.1_H5.1_A5.1_[T5C]_F5.1_[T8A]_T5.1 (ssRNA)
RNA: B2 RNA with C31A, U32C, C35A
B37: Ib_S2_P5E.1_K5.1_C5.1_H5.1_[G2A]_A5.1_F5.1_[A10C]_T5.1 (ssRNA)
RNA: B2 RNA with G29A, C31A, C35U, A37C
B38: Ib_S2_P5E.1_K5.1_C5.1_H5.1_[G2C]_A5.1_F5.1_[A10T]_T5.1 (ssRNA)
RNA: B2 RNA with G29C, C31A, C35U, A37U
B39: Ib_S2_P5E.1_K5.1_C5.1_H5.1_[A4C]_A5.1_F5.1_[A10C]_T5.1 (ssRNA)
RNA: B2 RNA with C35U, A37C
B40: Ib_S2_P5E.1_K5.1_C5.1_H5.1_A5.1_[T5A]_F5.1_[T9A]_T5.1 (ssRNA)
RNA: B2 RNA with C31A, U32A, C35U, U36A
B41: Ib_S2_P5E.1_K5.1_C5.1_H5.1_[A4T]_A5.1_F5.1_[T9C]_T5.1 (ssRNA)
RNA: B2 RNA with C31U, C35U, U36C
B42: Ib_S2_P5E.1_K5.1_C5.1_H5.1_A5.1_[T5C]_F5.1_[T8C]_T5.1 (ssRNA)
RNA: B2 RNA with C31A, U32C
B43: Ic_S2_P5E.1_K5.1_C5.1_H5.1_A5.1_[A7C]_F5.1_[T9A]_T5.1 (ssRNA)
RNA: B2 RNA with C31A, A34C, C35U, U36A
B44: Ib_S2_P5E.1_K5.1_C5.1_H5.1_[T3C]_A5.1_F5.1_[A10T]_T5.1 (ssRNA)
RNA: B2 RNA with U30C, C31A, C35U, A37U
B45: Ib_S2_P5E.1_K5.1_C5.1_H5.1_A5.1_[T5C]_F5.1_[A10C]_T5.1 (ssRNA)
RNA: B2 RNA with C31A, U32C, C35U, A37C
B46: Ic_S2_P5E.1_K5.1_C5.1_H5.1_A5.1_[A7G]_F5.1_[T8G]_T5.1 (ssRNA)
RNA: B2 RNA with C31A, A34G, C35G
B47: Ib_S2_P5E.1_K5.1_C5.1_H5.1_A5.1_[T5G]_F5.1_[A10G]_T5.1 (ssRNA)
RNA: B2 RNA with C31A, U32G, C35U, A37G
B48: Ib_S2_P5E.1_K5.1_C5.1_H5.1_A5.1_[T5G]_F5.1_[T9A]_T5.1 (ssRNA)
RNA: B2 RNA with C31A, U32G, C35U, U36A
B49: Ib_S2_P5E.1_K5.1_C5.1_H5.1_[G2T]_A5.1_F5.1_[A10C]_T5.1 (ssRNA)
RNA: B2 RNA with G29U, C31A, C35U, A37C
B50: Ib_S2_P5E.1_K5.1_C5.1_H5.1_A5.1_[A7T]_F5.1_[T8A]_T5.1 (ssRNA)
RNA: B2 RNA with C31A, A34U, C35A
B51: Ib_S2_P5E.1_K5.1_C5.1_H5.1_A5.1_[T5A]_F5.1_[A10T]_T5.1 (ssRNA)
RNA: B2 RNA with C31A, U32A, C35U, A37U
B52: Ib_S2_P5E.1_K5.1_C5.1_H5.1_A5.1_[A7C]_F5.1_[T8A]_T5.1 (ssRNA)
RNA: B2 RNA with C31A, A34C, C35A
B53: Ib_S2_P5E.1_K5.1_C5.1_H5.1_A5.1_[A7T]_F5.1_[T8C]_T5.1 (ssRNA)
RNA: B2 RNA with C31A, A34U
B54: Ib_S2_P5E.1_K5.1_C5.1_H5.1_[T1A]_A5.1_F5.1_[A10C]_T5.1 (ssRNA)
RNA: B2 RNA with U28A, C31A, C35U, A37C

Biological target: T1, PUF4 RNA-binding domain
Test: Mg; RNA-MaP; 20 mM Na-HEPES pH 7.4, 30 mM KOAc, 0.75 mM MgCl2, 0.1% Tween-20, 5% glycerol, 0.1 mg/mL BSA, 2 mM DTT; 25 C; 0.0125-409.6 nM protein
Details: tags: N-His6-TEV cleaved; C-SNAP kept, Cy3B-labelled; label: tethered on chip by stalled RNA polymerase

Binder	Kd
B1	0.749 nM
B2	39.2 nM
B3	25 nM
B4	420 nM
B5	12.9 nM
B6	61.5 nM
B7	2.99 nM
B8	6.54 nM
B9	429 nM
B10	608 nM
B11	31.4 nM
B12	180 nM
B13	27.9 nM
B14	26.8 nM
B15	> 2300 nM
B16	16.9 nM
B17	2010 nM
B18	> 2300 nM
B19	137 nM
B20	1.12 nM
B21	1750 nM
B22	3.1 nM
B23	106 nM
B24	5.15 nM
B25	104 nM
B26	2.01 nM
B27	5.31 nM

Binder	Kd
B28	34 nM
B29	> 2300 nM
B30	1690 nM
B31	7.81 nM
B32	10.6 nM
B33	3.8 nM
B34	7.72 nM
B35	0.834 nM
B36	4.42 nM
B37	294 nM
B38	1700 nM
B39	572 nM
B40	2.52 nM
B41	1480 nM
B42	2.86 nM
B43	2.31 nM
B44	2020 nM
B45	4.69 nM
B46	62.8 nM
B47	84.5 nM
B48	5.43 nM
B49	> 2300 nM
B50	3.83 nM
B51	9.98 nM
B52	8.24 nM
B53	3.48 nM
B54	> 2300 nM
